# Reference: patent publication US20030235860A1, “Interactions between AR, ER, TR2, and TR4” (priority 1999, published 2003)
# Tests used:
# [1] = biological target: T1, TR4 (Homo sapiens, UniProt P49116); test: TR4-mediated transactivation reporter assay; assay type: cell-based
# T1 construct: full-length AR and TR4 in eukaryotic expression vectors (pSG5AR and pCMXTR4) were co-transfected; expressed in transfected cells; host or cells: H1299, HepG2
# T1 sequence (P49116 1-615 isoform P49116-2 N175S/W419R/A428G/K503N/L504W/A613V): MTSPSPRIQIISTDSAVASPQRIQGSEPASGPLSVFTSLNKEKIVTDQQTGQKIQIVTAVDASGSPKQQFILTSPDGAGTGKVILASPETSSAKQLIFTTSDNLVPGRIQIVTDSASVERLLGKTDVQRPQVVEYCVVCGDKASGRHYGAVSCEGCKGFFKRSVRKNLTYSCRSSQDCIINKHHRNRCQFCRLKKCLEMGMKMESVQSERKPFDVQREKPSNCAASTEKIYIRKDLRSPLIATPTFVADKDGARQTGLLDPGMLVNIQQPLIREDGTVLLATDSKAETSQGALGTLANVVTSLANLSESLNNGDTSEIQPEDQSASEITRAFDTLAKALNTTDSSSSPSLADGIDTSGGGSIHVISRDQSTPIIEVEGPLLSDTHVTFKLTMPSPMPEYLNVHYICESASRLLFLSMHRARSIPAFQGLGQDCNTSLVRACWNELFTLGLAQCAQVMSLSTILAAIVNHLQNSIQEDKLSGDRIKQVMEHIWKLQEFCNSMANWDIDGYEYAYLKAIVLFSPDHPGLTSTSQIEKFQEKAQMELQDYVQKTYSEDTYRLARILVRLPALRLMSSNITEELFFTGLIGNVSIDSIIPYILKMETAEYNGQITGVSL
# Description: Cells were routinely maintained in DMEM with 10% heat-inactivated fetal bovine serum. The cells were transfected using a modified calcium phosphate precipitation method, Mizokami, & Chang, J: Biol. Chem. 269,25655-25659 (1994), or SuperFect (Qiagen). To normalize the transfection efficiency, the (3-galactosidase expression ver and pRL-TK were co-transfected in CAT assay and in Dual-luciferase reporter assay system (Promega), respectively.
# More specifically, 500 ng of reporter plasmids were co-transfected(DR4-CAT and CNTFR-15-LUC) with 200 ng of pCMX-TR4 and increasing amounts of pCMV-AR (200, 600, and 1,200 ng), pSG5GR (1,200 ng), or pSG5 PR (1,200 ng) using the SuperFect transfection kit (Qiagen) (PCMV AR Mowszowicz et al., (1993) Molecular Endocrinology 7:861:869). […] Similar results were obtained when the DR4-TK-CAT reporter was replaced with DR1-CNTFR-15-LUC, another TR4 response element (FIG. 3A). Young, et al., J: Biol. Chem. 272,3109-3116 (1997).
# Another TR4 potential target gene, which is located in the hepatitis B virus (HBV) enhancer II region (−34 to −7) containing a classic DR1 motif. Breidbart, et al., Pediatric Res. 34,300-302 (1993), was investigated. The reporter plasmid CpFL(4)-LUC, which contains the HBV core promoter (Cp) sequence located between −34 and −7 (nucleotide coordinates 1751 and 1778 derived from the Genbank database) was shown above in FIG. 3B. The arrows indicate the DRI motif in HBV core promoter. HepG2 cells were co-transfected with 1.5 μg CpFL(4)-LUC reporter and 0.5 μg pCMX-TR4, with increasing amounts of pCMV-AR (0.5, 2.5, and 5 μg) by modified calcium phosphate precipitation method. The relative reporter gene activities were compared to the CAT activities (or luciferase activities) with vector alone. To normalize the transfection efficiency, the β-galactosidase expression vector and pRL-TK were co-transfected in the CAT assay and in the Dual-luciferase reporter assay system (Promega), respectively.
# [2] = system: PR; test: Endogenous PR expression in T47D cells (Northern / Western); assay type: cell-based, human
# Description: The method was used as previously described, Lee & Chang. (1996) J. Biol. Chem. 271. 10405-10412, with some modifications. Briefly. 5 μg of pCMV-TR2 was transiently transfected into T47D cells and lysed in RIPA buffer (10 mM sodium phosphate, pH 7.0. 150 mM NaCL, 2 mM EDT A. 1% (w/v) Nonidet P-40, 0.1% (w/v) SDS. 1% (w/v) sodium deoxycholate) with freshly adding proteinase inhibitors. The soluble protein was quantified using the Bio-Rad Protein Assay reagent (Bio-Rad Laboratories) and 50 μg soluble proteins were loaded onto SDS/10% PAGE and then transferred to Immobion-P transfer membrane (Millipore). After the blocking reaction overnight, the membrane was incubated with […] anti-PR polyclonal antibody (H-190. Santa Cruz) in PBS(−) containing 0.1% Skim milk for 2 h at room temperature. The membrane was washed and then incubated in 15 μCi 125I] of protein-A (DuPont NEN)/30 ml of PBS(−) containing 0.1% Skim milk for 1 h at room temperature. The western blots were autoradiographed and quantitated by using Phosphorlmager.
# RNA isolation and Northern blot analysis were performed as previously described. Young, et al., J. Biol. Chem. 273,20877-20885 (1998).
# Next it was determined if TR2 could repress the ER endogenous target gene expression. PR was chosen because it is well studied as an E2-ER target gene in T47D cells. Misrahi et al., Biochem. Biophys. Res. Commun. 143, 740-748 (1987). […] Cells were then used for RNA isolation (Northern blot analysis) and lysate protein extraction (Western blot analysis). For RNA analysis, total RNAs were isolated, and Northern blots were performed using [32P] labeled PR cDNA probes. The membrane was autoradiographed. For Protein Western blot analysis, cells lysates were prepared and PR proteins were visualized by radioimmunoblot. The membrane was autoradiographed to Phosphorimager and was quantitated by ImageQuant software.
# [3] = system: cyclin D1; test: Western blot of cyclin D1 in MCF-7-TR4 cells; assay type: cell-based; details: 10 nM E2, Dox
# Description: MCF-7-TR4 or MCF-7-pBIG cells were cultured in DMEM containing 10% charcoal dextran-treated FBS for 3 days and then 1×10^6 cells were seeded on 100-mm dishes. […] The lysate protein amount was quantitated by Bradford assay (Bio-Rad, Hercules, Calif.) with bovine serum albumin as a reference standard. One hundred μg protein was loaded and after electrophoresis on 10% SDS-PAGE was transferred onto Immobulin (Milipore, Bedford, Mass.). The membrane was blotted with anti-cyclin D1 rabbit polyclonal Ab (H-295) (Santa Cruz). Alkaline phosphatase conjugated secondary Ab was used.
molecule,measurement,setting,value
"AR: androgen receptor, SEQ ID NO:31",CAT activity induced by pCMXTR4 (DR4-TK-CAT; similar with DR1-CNTFR-I5-LUC),"[1]; H1299 cells, absence or presence of DHT",repressed significantly
same,TR4-induced CpFL(4)-LUC activity (HBV core promoter),"[1]; HepG2 cells, increasing pCMV-AR",significantly decreased
same,Activity TR4 (effect of regulator on transcription activity),[1]; Table 5,Down
"TR2: human testicular orphan nuclear receptor 2, 603 amino acids (protein, UniProt P13056 1-603, looked up, full-length, human testicular orphan nuclear receptor 2, 603 amino acids) MATIEEIAHQIIEQQMGEIVTEQQTGQKIQIVTALDHNTQGKQFILTNHDGSTPSKVILARQDSTPGKVFLTTPDAAGVNQLFFTTPDLSAQHLQLLTDNSPDQGPNKVFDLCVVCGDKASGRHYGAVTCEGCKGFFKRSIRKNLVYSCRGSKDCIINKHHRNRCQYCRLQRCIAFGMKQDSVQCERKPIEVSREKSSNCAASTEKIYIRKDLRSPLTATPTFVTDSESTRSTGLLDSGMFMNIHPSGVKTESAVLMTSDKAESCQGDLSTLANVVTSLANLGKTKDLSQNSNEMSMIESLSNDDTSLCEFQEMQTNGDVSRAFDTLAKALNPGESTACQSSVAGMEGSVHLITGDSSINYTEKEGPLLSDSHVAFRLTMPSPMPEYLNVHYIGESASRLLFLSMHWALSIPSFQALGQENSISLVKAYWNELFTLGLAQCWQVMNVATILATFVNCLHNSLQQDKMSTERRKLLMEHIFKLQEFCNSMVKLCIDGYEYAYLKAIVLFSPDHPSLENMEQIEKFQEKAYVEFQDYITKTYPDDTYRLSRLLLRLPALRLMNATITEELFFKGLIGNIRIDSVIPHILKMEPADYNSQIIGHSI",E2-induced PR expression at mRNA and protein levels,"[2]; T47D cells and MCF7 cells, Example 2",repress
same,Expression of endogenous PR mRNA,"[2]; T47D cells transfected with pCMV-TR2, 10 nM E2",clearly repressed
same,Endogenous PR expression (Western blot),"[2]; T47D cells, similar in MCF7",repress
"TR4: human testicular orphan nuclear receptor 4, SEQ ID NO:16; expressed from plasmid or in vitro translated (protein) MTSPSPRIQIISTDSAVASPQRIQGSEPASGPLSVFTSLNKEKIVTDQQTGQKIQIVTAVDASGSPKQQFILTSPDGAGTGKVILASPETSSAKQLIFTTSDNLVPGRIQIVTDSASVERLLGKTDVQRPQVVEYCVVCGDKASGRHYGAVSCEGCKGFFKRSVRKNLTYSCRSSQDCIINKHHRNRCQFCRLKKCLEMGMKMESVQSERKPFDVQREKPSNCAASTEKIYIRKDLRSPLIATPTFVADKDGARQTGLLDPGMLVNIQQPLIREDGTVLLATDSKAETSQGALGTLANVVTSLANLSESLNNGDTSEIQPEDQSASEITRAFDTLAKALNTTDSSSSPSLADGIDTSGGGSIHVISRDQSTPIIEVEGPLLSDTHVTFKLTMPSPMPEYLNVHYICESASRLLFLSMHRARSIPAFQGLGQDCNTSLVRACWNELFTLGLAQCAQVMSLSTILAAIVNHLQNSIQEDKLSGDRIKQVMEHIWKLQEFCNSMANWDIDGYEYAYLKAIVLFSPDHPGLTSTSQIEKFQEKAQMELQDYVQKTYSEDTYRLARILVRLPALRLMSSNITEELFFTGLIGNVSIDSIIPYILKMETAEYNGQITGVSL",Cyclin D1 expression,[3],suppress
